Data reported in article PMC4398458, “Reversible Linkage of Two Distinct Small Molecule Inhibitors of Myc Generates a Dimeric Inhibitor with Improved Potency That Is Active in Myc Over-Expressing Cancer Cell Lines” (PLoS ONE, 2015).

Biological target: c-Myc bHLH-LZ;Max (human;human, UniProt P01106-1;P61244 352-439;1-160, |)
Assay: EMSA; Myc:Max heterodimer, no inhibitor; EMSA: 100 mM KCl, 1 mM DTT, 1 mM EDTA, 50 mM Tris pH 7.4, 5 mM MgCl2, 0.002% NP40, 2% DMSO, room temperature; 200 ng Myc, 350 ng Max, 100 nM DNA, 10 ul; gel run in TBE at 4 C
Settings: protein: recombinant;commercial; tags: N-terminal 6xHis with TEV cleavage site; C-terminal GGCD extension;His and GST; copies: 1;1; label: none (SYBR Green stain); (only one strand given)

c-Myc bHLH-LZ;Max, sequence (P01106 367-454, chain 1 of 2): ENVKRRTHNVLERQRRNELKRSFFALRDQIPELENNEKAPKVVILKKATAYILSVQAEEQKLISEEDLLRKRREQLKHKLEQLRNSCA
c-Myc bHLH-LZ;Max, sequence (P61244 whole entry, chain 2 of 2): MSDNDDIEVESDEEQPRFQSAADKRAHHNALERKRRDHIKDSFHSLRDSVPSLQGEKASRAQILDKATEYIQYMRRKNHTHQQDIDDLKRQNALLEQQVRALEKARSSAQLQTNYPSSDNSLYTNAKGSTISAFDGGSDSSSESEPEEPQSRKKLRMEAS

B1: E-box oligonucleotide (dsDNA)
DNA 1: GATCAGTTGACCACGTGGTCTGGG
DNA 2: CCCAGACCACGTGGTCAACTGATC
binding result: binds
